# Test: soluble on expression in E. coli; label from the status in PepcDB or PDB records
row,Sequence,soluble on expression in E. coli
1,MTESTTSSPHDAVFKTFIFTPETARDFLEIHLPEPLRKLCNLQTLRLEPTSFIEKSLRAYYSDVLWSVETSDGDGYIYCVIEHQSSAEKNMAFRPMRYATAAMQSHLDKGYDRVPLVVPLLFYHGETSPYPYSLNWLDEFDDPQLARQLYTEAFPLVDITIVPDDEIMQHRRIALLELIQKHIRDHDLIGMVDRITTLLVRGFTNDSQLQTLFNYLLQCGDTSRFTRFIQEIAERSPLQKERLMTIAERLRQEGHQIGWQEGKLVGLQQGKLEGLQEGMHEQAIKIALRMLEQGIDRDQVLAATQLSEADLAANNH,not soluble
2,SNAEELQALVDNIPAAIYHLDVSGQATIRFRPPAFLKTLVSEHAGTTRLNTLSMIHHDDRHMLSNAYSKLREAKHSLTLVYRIVTPEGKLHWIEDHMRSSFSDDGLFSGIDGILCEVT,soluble
3,MTDLTGILYIVATPIGNLQDITQRALETFAQVDLIAAEDTRHSGLLLSHYGIKKPFFALHDHNEQEKAHILVEKLKQGSNIALISDAGTPLISDPGFHLVRQCREAGIRVVPLPGACAAITALCASGIASDRFCFEGFLPAKSKARKDKLENIAEEDRTLIFYESTHRILDTLEDMQAVLGEERYIVLAREMTKTWETITGNTIKNLREWLLEDPNRTKGEMVLIVEGKPKSDNNDEISPQAVKALELIAEELPLKKAAAIVAELYGYKKNALYQFGLAHLEK,not soluble
4,MKVIAVNGGPRKQWNTATLLHKALEGAQSAGAETDLFHLYDLNYKGCISCFGCKRKNSSRIGHCVLKDELTPLLEEVLKCDALLLGSPIYFGNVTGAMRSFLERLFFSLLSYNEGQRTVFPRKVASGFIYTMNVPEDFLPQLGYEAVFKANARSLELLNGPSEYLLATDTYQFDNYSNYEASRFNEQHKAQVRQERFPQDCRQAFDLGAR,not soluble
5,MSLEMNRYLSFTLFTGLSLLTTIPIEAYTLNPNKTATSILQTNVIEVRSITSVQPIVIYCPVGTVPQLPYQVWVTYSDGQGEYRQTKWSNSALSTEQSEADDKVYPIGSQYTINGFIIGDDTTENGYPITAKIEVVDTKNTISPKLIAHTIPLNNVKINGNNRLTSNRDLAIKEIISWDVSQQLYNYRDTYGLSTEGYTRSDGWDSPETKLKGHGSGHYMSALALAYAAATNPSHKEILRRNITRMVNELRECQERTFVWSEELGRYLEARDFAPEEELKKMKGTWEAFDEHKTKWATYGYGYLNAIPPHHPALIEMYRAYNNSDWVWAPYYSIHKQLAGLIDIATYMDDKSIADKALLIAKDMGLWVWNRMHYRTYVKKDGTQEERRTHPGNRYEMWNMYIAGEVGGMGESLARLSEMVSAPEEKARLIEASNCFDSPAFYEPLSKNIDDIRNRHANQHIPMIIGALRSYLSNNDTFYYHVSHNFWNLIQGRYRYSTGGVGNGEMFRQPYTQIVSMAMNGVSEGESHSNPHINETCCAYNLLKLTKDLNCLNPDDARYMDYYERTLYNQIIGSLHPEHHQTTYQYAVGLNASKPWGNETPQSTCCGGTGSENHVKYQEATYFVSDNTLWVALYMPTTLHWEEKNITLQQECLWPAKSSTIKVTAGEARFAMKLRVPYWATDGFDVKLNGISIATHYQPCSYAVIPTRQWKENDIVEITMPFTKHIDYGPDKLPAEIASKDGHQLETAWVGTLMHGPFAMTATDITNWTEATLNIDSRLASITVVEPNGPQTGTTGNLYTLMQGGRTFQPDYYRHDHTTHYFRINHIKDPTEGHHHHHH,soluble
6,MSLNIMDFNVKKLAADAGTFLSRAVQFTEEKLGQAEKTELDAHLENLLSKAECTKIWTEKIMKQTEVLLQPNPNARIEEFVYEKLDRKAPSRINNPELLGQYMIDAGTEFGPGTAYGNALIKCGETQKRIGTADRELIQTSALNFLTPLRNFIEGDYKTIAKERKLLQNKRLDLDAAKTRLKKAKAAETKSSSEQELRITQSEFDRQAEITRLLLEGISSTHAHHLRCLNDFVEAQMTYYAQCYQYMLDLQKQLGSFPSNYLSNNNQTSGTPVPYALSNAIGPSAQASTGSLVITCPSNLNDLKESSNNRKARVLYDYDAANSTELSLLADEVITVFSVVGMDSDWLMGERGNQKGKVPITYLELLNEGHHHHHH,soluble
7,MAGHVNGTCAPVIPKVGDEEDGVGQLVANLKEKGTNFVLLKKTPQILELQTILKDRFCGKINDFRYFCRKNLLILNKLLFCLKKRFSWNLDFKNPLIHKFSGQKRHFKRFCQIFSDFESKFRYFHKFPGPKRSTNHSDFVFNADRLMRLVIEECLNHLPFTEHTVTTPTGFKYEGIQFNRGNCGVSLCRSGEAMEVSLRQCCRCIRIGKILIGDEQKVLYARLLPDITSRRVLLLYPTIGSGTTVCKAIEVLKEARVPDENIYLVSLFISPTGLKNITRKYPYITVVASDITSLYPNHFSTSYFGAV,not soluble
8,TLNIVITGAKGFVGKNLKADLTSTTDHHIFEVHRQTKEEELESALLKADFVVHLAGVNRPEHDKEFSLGNVSYLDHVLDILTRNTKKPAILLSSSIQATQDNPYGESKLQGEQLLREYAEEYGNTVYIYRWPNLFGKWCKPNYNSVIATFCYKIARNEEIQVNDRNVELTLNYVDDIVAEIKRAIEGTPTIENGVPTVPNVFKVTLGEIVDLLYKFKQSRLDRTLPKLDNLFEKDLYSTYLSYLPSTDFSYPLLMNVDDRGSFTEFIKTPDRGQVSVNISKPGITKGNHWHHTKNEKFLVVSGKGVIRFRHVNDDEIIEYYVSGDKLEVVDIPVGYTHNIENLGDTDMVTIMWVNEMFDPNQPDTYFLEV,soluble
9,TELTLKPGTLTLAQLRAIHAAPVRLQLDASAAPAIDASVACVEQIIAEDRTAYGINTGFGLLASTRIASHDLENLQRSLVLSHAAGIGAPLDDDLVRLIMVLKINSLSRGFSGIRRKVIDALIALVNAEVYPHIPLKGSVGASGDLAPLAHMSLVLLGEGKARYKGQWLSATEALAVAGLEPLTLAAKEGLALLNGTQASTAYALRGLFYAEDLYAAAIACGGLSVEAVLGSRSPFDARIHEARGQRGQIDTAACFRDLLGDSSEVSLSHKNADKVQDPYSLRCQPQVMGACLTQLRQAAEVLGIEANAVSDNPLVFAAEGDVISGGNFHAEPVAMAADNLALAIAEIGSLSERRISLMMDKHMSQLPPFLVENGGVNSGFMIAQVTAAALASENKALSHPHSVDSLPTSANQEDHVSMAPAAGKRLWEMAENTRGVLAIEWLGACQGLDLRKGLKTSAKLEKARQALRSEVAHYDRDRFFAPDIEKAVELLAKGSLTGLLPAGVLPSL,soluble
10,MSLCDRSEVGDVSLGMFTLKDIKINNLTDPVVTGVTCHVASIEADLSLADPSDSSISCRQTGEITPEMIAQIDKSSSGEVVFQKSKSIFFKSMKIRRIFDAKNQTLMYLSYSTKETSGSFKHSLSTVPLWGTQAYNAFPETQNKEGHHHHHH,soluble
11,MGSDKIHHHHHHMKVWPVKHSPLLRQPERFIARSELQALIRNVTQNLVNIKDESGQFLLRLDDGRVIDTKGWAGWEWTHGVGLYGIYQYYQQTGDIEMRDIIDRWFADRFAEGATTKNVNTMAPFLTLAYRFEETGRMAYLPWLESWAEWAMHEMPRTEQGGMQHMTLAEENHQQMWDDTLMMTVLPLAKIGKLLNRPQYVEEATYQFLLHVQNLMDRETGLWFHGWNYEGRHNFARARWARGNSWLTMVIPDFLELVDLPEGNAVRRYLITVLDAQIAALAECQDDSGLWHTLLDDPHSYLEASATAGFAYGILKAVRKRYVGQHYAGVAEKAIRGIVQNISPQGELLQTSFGTGMGSDLDFYRQIPLTSMPYGQAMAILCLTEYLRKYF,not soluble
12,MADNINESEIIERLNSAPSVRGFFIATVDVFNESIDGLIQRIFRKDNFAVQSVVGPLLQDSGPLGDLSVRLKLLFGLGVLPDDIYHDIEDIIKLKNHLNSDASDYEFTDPNILEPIKKLHLVKKMGMVQLEVNEPDDDIDLEFYQLQLQRQQQIIKSGLSLAIVEICNELGK,soluble
13,MNNDHLDPINSLNVPELADTTFAMDFLIRAKEGVRNTAVALTETASPDVRALLRKQLMQGIAMHQEITELMISKKWFHPYELSEQYKLDQLSAKNTIMVGNMNLFPDETNRKGMFDRTPDEHMAGDPLEHHHHHH,not soluble
14,MGSDKIHHHHHHMDKVIEMKGITKVFPGTIANDNVNFELTRGETHVLLGENGAGKTTLMNILYGLYHPEKGQIIVNGKSVQFSGPNDAIKSGIGMVHQHFMLVNNFTVAENIVLGMEPKNGIRVDMGKAINNVKELSDKYGFAIEPKAIIEDISVGQQQKVEILKALYRGADVLILDEPTAVLTPQEIDELGDIIENLKKEGKSVILITHKLKEVMKMSDRVTIIRRGKVTGTVNTKDTSIDELAELMVGRKVNLTIAKKESKAGKEVLRVEELKVKDHRDVLVVKGINLVVNSGEILGIAGVDGNGQSEFIEALTGLKKVESGNVILNGKNISGKSAKYITNSGVGHIPEDRHKRGLVLKYSLYENSILGMHHRKPFSRMFNINYKAVRKHCKKLIEEFDIRTPNDEVNAAALSGGNQQKLVVAREISRNPDLLIASQPTRGLDVGAIEYIHKRIVEERDKGKAVLLVSLELDEILALSDRIAVMYDGKIVDVLERKDADEKKLGILMAGGNLDKKESVNTVEER,not soluble
15,MASDYKDDDDKRRRGMEGAKLSAVRIAVREAPYRQFLGRREPSVVQFPPWSDGKSLIVDQNEFHFDHAFPATISQDEMYQALILPLVDKLLEGFQCTALAYGQTGTGKSYSMGMTPPGEILPEHLGILPRALGDIFERVTARQENNKDAIQVYASFIEIYNEKPFDLLGSTPHMPMVAARCQRCTCLPLHSQADLHHILELGTRNRRVRPTNMNSNSSRSHAIVTIHVKSKTHHSRMNIVDLAGSEGVRRTGHEGVARQEGVNINLGLLSINKVVMSMAAGHTVIPYRDSVLTTVLQASLTAQSYLTFLACISPHQCDLSETLSTLRFGTSAKAAALEHHHHHH,soluble
16,MWRSCLRLRDGGRRLLNRPAGGPSASMSPGPTIPSPARAYAPPTERKRFYQNVSITQGEGGFEINLDHRKLKTPQAKLFTVPSEALAIAVATEWDSQQDTIKYYTMHLTTLCNTSLDNPTQRNKDQLIRAAVKFLDTDTICYRVEEPETLVELQRNEWDPIIEWAEKRYGVEISSSTSIMGPSIPAKTREVLVSHLASYNTWALQGIEFVAAQLKSMVLTLGLIDLRLTVEQAVLLSRLEEEYQIQKWGNIEWAHDYELQELRARTAAGTLFIHLCSESTTVKHKLLKE,not soluble
17,AHHHHHHGSDLERALNAFHSMKVNQLTPPCSQMPIVEEDSPIIDVLKLLRTRHHVWVVNNRKDMKLVGIIRYLDIIDIFLPPKGARLGAVSSVFKSILSGAEKAGDIMERNFLTINEDATVLEALEKMKRYKIQILALIDEEGKLKGEISLRILINEFLRLIRVGGG,soluble
18,MERLHLSWEDLLRLVRRLAEALSGEPFDLVLGVARGGLIPTALLAQALGARNILTAAVMFYEGEEALPEPVFLQFPPDVLLFGKRVLVVDDVWDSGRTAFAVKARVRRAGGVPVVATLHFKPGRNRVPDRPDFYAEETAAWVVYPWALEAWPKG,soluble
19,MPFLPPLTPPTELYLGIQLPSPISILVNYLPVSQTPIETLRNLVYSCDINTLAIDEFMTWPSLLQPGSPFRPYFEVLVERGSIPAVYLEGVRQASNFVTVAQGLSVMTTVALSDPFACFATGLFLTCTGNHLDFLPISEKFWEMTPTLEAGHAVAEMVMYHISQLHTENARRWERSWRFVHLPSCVGQCTFHHGCRVCFFYWYAREMAIFY,soluble
20,MSQQIQMKSVIDVKFPTHLFSPLATSSPKLTRMRAPIRDQSWSSCSDDSSGNLTSQAITGVDDSHIEATKLENESSTSSCSMHTALEFVNSSIFERVRSYSEVITREELQSAIFERKLTETDCSKEEAEMYSIIVTERILWTAGRTWTGTIQVKTKDLLNDYVRYACEDWYMKHTGQLCAVELNHIGKWDEIFDSNAIAIYCYETGIPTIIVDRIFSSNLVRRSTGNYLDTKEVTWLIFAMIGTDENQSIEYWFRVLDVQSTGILQLDDLRMFYDAITKFLVNNNVQSLPFENAIAQFRDILGTDKWNLQSFKKNSQLAFRVINGFVCALRFLEQEICEKTNTERQDDEEFGMVRTRWQRLIDHKFDDYYAQSSTSSSGSFNINNEPINPV,not soluble
